The record followed here is US20220227876A1 (COUNCIL OF THE QUEENSLAND INSTITUTE OF MEDICAL RESEARCH, published 2022).

Common to all, as to assay: cell-based or functional assay
The target in test [1] is recombinant soluble human RANKL (human) (UniProt O14788).
In test [2] the target is soluble mouse RANKL (mouse) (UniProt O35235).
Test [3] has as its target T1, mouse RANK on murine bone marrow cells (mouse, UniProt O35305 31-625).
T1 sequence (looked up): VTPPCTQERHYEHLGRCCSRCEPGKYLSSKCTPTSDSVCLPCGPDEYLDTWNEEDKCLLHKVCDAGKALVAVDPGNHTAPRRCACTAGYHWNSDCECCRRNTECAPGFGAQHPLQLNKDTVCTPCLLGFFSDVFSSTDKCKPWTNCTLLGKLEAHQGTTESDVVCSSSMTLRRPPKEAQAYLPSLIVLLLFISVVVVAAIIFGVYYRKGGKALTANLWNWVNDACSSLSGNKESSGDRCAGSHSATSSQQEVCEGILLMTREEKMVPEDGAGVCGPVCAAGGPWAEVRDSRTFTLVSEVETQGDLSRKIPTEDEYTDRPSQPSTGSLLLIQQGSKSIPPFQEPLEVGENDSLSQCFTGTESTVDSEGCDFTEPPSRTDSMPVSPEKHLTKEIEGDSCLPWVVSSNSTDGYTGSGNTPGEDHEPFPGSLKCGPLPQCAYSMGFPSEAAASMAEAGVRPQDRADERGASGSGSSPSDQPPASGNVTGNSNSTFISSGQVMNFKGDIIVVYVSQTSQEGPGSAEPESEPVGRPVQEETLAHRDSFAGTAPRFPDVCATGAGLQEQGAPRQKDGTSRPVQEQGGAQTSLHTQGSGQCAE

Several values for one entry are separate records, joined by “and”; a condition that tells them apart may be missing. Equal values may be shown once.

Sequence of soluble mouse RANKL (mouse) (O35235 143-316 limits assumed): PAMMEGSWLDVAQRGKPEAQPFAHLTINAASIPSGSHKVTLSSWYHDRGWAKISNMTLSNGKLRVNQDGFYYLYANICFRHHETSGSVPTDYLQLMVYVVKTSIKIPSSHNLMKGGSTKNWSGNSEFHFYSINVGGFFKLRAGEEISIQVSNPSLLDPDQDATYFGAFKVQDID
Sequence of recombinant soluble human RANKL (human) (O14788 143-317 limits assumed): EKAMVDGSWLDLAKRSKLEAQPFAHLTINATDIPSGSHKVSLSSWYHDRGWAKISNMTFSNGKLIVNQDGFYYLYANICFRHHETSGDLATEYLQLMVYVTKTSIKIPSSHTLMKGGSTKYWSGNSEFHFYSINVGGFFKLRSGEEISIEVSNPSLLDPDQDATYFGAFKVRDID

For “RANK-Fc (positive control in osteoclast assay) (Fc fusion)”, in test [1], the IC50, huRANKL-induced osteoclast formation (TRAP+ multinucleated cells) is 0.092 µg/mL; the concentration for complete block of huRANKL-induced osteoclast formation was 500 ng/mL and 1000 ng/mL.

B1: anti-muRANKL IK22-5 mAb (antibody, from a related filing, V domains shown)
VH: QVQLKESGPGLVLSSATLSLTCTVSGFSLTNYDVSWIRHLPGKGLEWMGGVWLSGNTEYNSDFKSRLSISRDISKSQVFLKMSNLKIEDTGTYYCARDIGTTSDYWGQGVTVTVSS
VL: DIQVTQSPSFLSASVGDRVTFNCKTSQNINKYLAWYQAKFGEGPKLLIFNADSLQSGIPPRFSGSGSGTDFTLTISGLQPEDFATYFCLQYNSWPTFGSGTKLEIK
In test [2], B1 registered an IC50, muRANKL-induced osteoclast formation (TRAP+ multinucleated cells) of 0.0198 µg/mL and a concentration for complete block of muRANKL-induced osteoclast formation of 62.5 to 125 ng/mL.

B2: anti-RANK 3A3 antibody (full-length IgG, human Fab on a mouse IgG2a Fc backbone) (antibody, V domains shown)
VH: EVQLVESGGGVVQPGTSLRLSCAASGFTFSSYAMHWVRQAPGKGLEWVAVVSYDGSTKSYADSMKGRFTISRDNSKNTLYLQMNSLRAEDTAVYYCAKDPALRYFDWGYFQHWGQGTLVTVSS
VL: SYELTQPPSVSVSPGQTASITCSGDKLGDKYVCWYQQKPGQSPVLVIYGDSERPSGIPERFSGSNSGNTATLTISGTRAVDEADYYCQAWDSTTPLFGGGTNLTVL
With B2, in test [3], the “IC50, huRANKL-induced osteoclast formation (TRAP+ multinucleated cells)” value amounted to 0.0035 µg/mL; the “IC50, muRANKL-induced osteoclast formation (TRAP+ multinucleated cells)” value was determined as 0.0074 µg/mL; the “potency ratio from IC50s, huRANKL-induced osteoclast formation” value was approximately 25 fold; the “potency ratio from IC50s, muRANKL-induced osteoclast formation” value is approximately 2 fold.
